This assay addresses human factor Xa (human). In words: functional titration of prothrombinase activity.

Sequence of human factor Xa (human) (P00742 whole entry): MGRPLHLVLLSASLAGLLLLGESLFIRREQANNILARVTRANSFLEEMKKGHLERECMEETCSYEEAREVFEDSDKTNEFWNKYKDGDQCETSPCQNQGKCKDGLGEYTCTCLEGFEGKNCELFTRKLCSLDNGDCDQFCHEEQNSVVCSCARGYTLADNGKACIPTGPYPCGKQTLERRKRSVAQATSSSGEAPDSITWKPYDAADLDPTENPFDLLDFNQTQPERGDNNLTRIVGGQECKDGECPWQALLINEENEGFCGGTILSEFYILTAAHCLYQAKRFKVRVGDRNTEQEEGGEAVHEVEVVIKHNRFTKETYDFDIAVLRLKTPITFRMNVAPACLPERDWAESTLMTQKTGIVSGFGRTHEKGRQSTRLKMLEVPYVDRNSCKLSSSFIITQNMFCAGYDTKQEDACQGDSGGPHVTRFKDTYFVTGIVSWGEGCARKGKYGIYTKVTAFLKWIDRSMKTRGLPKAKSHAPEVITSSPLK

In turn, “recombinant wild-type human factor Va (from UniProt P12259 29-737; P12259 1574-2224) (natural protein)” came in with a dissociation constant Kd of 0.24 nM.

What is called Kd is a measure of binding affinity in units of concentration.

(Values after article PMC2652359.)
